Test results reported in patent US8008547B2, “Glyphosate-N-acetyltransferase (GAT) genes” (E.I. duPont de Nemours, priority 2000, dated 2011).

Assay: Standard protocol for determination of kcat and KM (continuous spectrophotometric assay, Acetyl CoA hydrolysis at 235 nm)
Format: biochemical
Settings: purified protein, about 23° C., 0.2 mM acetyl CoA; for Kcat: 20 mM HEPES pH 6.8, 10% ethylene glycol; for Km: pH 6.8, glyphosate 0.125 to 10 mM
Outline: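 KM from initial rates over 0.125–10 mM glyphosate, fitted by Lineweaver-Burke transformation of Michaelis-Menten; kcat/KM computed as kcat divided by KM. Continuous spectrophotometric read of acetyl-CoA hydrolysis at 235 nm.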

| Molecule | Kcat | Km |
| --- | --- | --- |
| SEQ ID NO: 293: GAT polypeptide (protein, 12_6H6, GAT polypeptide) MIEVKPINAEDTYEIRHRILRPNQPLEACKYETDLLGGTFHLGGYYRGKLVSIASFHQAEHPELEGQKQYQLRGMATLEGYREQKAGSTLIRHAEALLRKKGADLLWCNARTSASGYYKKLGFSEQGEVYDIPPTGPHILMYKKLT | 1.51 s⁻¹ | 1600 µM |
| SEQ ID NO: 294: GAT polypeptide (protein, 12_7D6, GAT polypeptide) MIEVKPINAEDTYEIRHRILRPNQPLEACKYETDLLGGTFHLGGYYRGKLISIASFHQAEHPELEGQKQYQLRGMATLEGYREQKAGSTLIRHAEELLRKKGADLLWCNARTSASGYYKKLGFSEQGGVYDIPPTGPHILMYKKLT | 0.898 s⁻¹ | 1400 µM |
| SEQ ID NO: 303: GAT polypeptide (protein, 13_7C1, GAT polypeptide) MIEVKPINAEDTYEIRHRILRPNQPLEACKYETDLLRGAFHLGGYYRGKLISIASFHQAEHPELEGQKQYQLRGMATLEGYREQKAGSTLIRHAEELLRKKGADLLWCNARTSARGYYKKLGFSEQGEVYDIPPTGPHILMYKKLT | 0.802 s⁻¹ | 1500 µM |
| SEQ ID NO: 310: GAT polypeptide (protein, 14_12D8, GAT polypeptide) MIEVKPINAEDTYEIRHRILRPNQPLEACKYETDLLGGTFHLGGYYRGKLVSIASFHQAEHPELEGQKQYQLRGMATLEGYREQKAGSTLIRHAEALLRKKGADLLWCNARTSASGYYKKLGFREQGGVYDIPPVGPHILMYKKLT | 1.04 s⁻¹ | 1000 µM |
| SEQ ID NO: 301: GAT polypeptide (protein, 13_7A7, GAT polypeptide) MIEVKPINAEDTYEIRHRILRPNQPLEACMYETDLLRSAFHLGGYYRGKLISIASFHQAEHPELEGQKQYQLRGMATLEEYREQKAGSTLIRHAEELLRKKGADLLWCNARTSASGYYKKLGFSEQGEVYDTPPVGPHILMYKKLT | 1.95 s⁻¹ | 500 µM |
| SEQ ID NO: 308: GAT polypeptide (protein, 14_10H9, GAT polypeptide) MIEVKPINAEDTYEIRHRILRPNQPLEACKYETDLLRGAFHLGGYYRGKLVSIASFHQAEHPELEGQKQYQLRGMATLEGYREQKAGSTLIRHAEELLRKKGADLLWCNARTSASGYYKKLGFSEQGEVYDTPPVGPHILMYKKLT | 2.12 s⁻¹ | 1100 µM |
| SEQ ID NO: 298: GAT polypeptide (protein, 1_2H6, GAT polypeptide) MIEVKPINAEDTYEIRHRILRPNQPLEACMYETDLLGGAFHLGGYYRGKLISIASFHQAEHSELEGQKQYQLRGMATLEGYREQKAGSTLIRHAEELLRKKGADLLWCNARTSASGYYKKLGFSEQGGVYDIPPIGPHILMYKKLT | 0.155 s⁻¹ | 900 µM |
| SEQ ID NO: 297: GAT polypeptide (protein, 12G7, GAT polypeptide) MIEVKPINAEDTYEIRHRILRPNQPLEACKYETDLLGGTFHLGGYYQGKLISIASFHKAEHSELEGQKQYQLRGMATLEGYREQKAGSTLIRHAEELLRKKGADLLWCNARTSVSGYYKKLGFSEQGEVYDIPPIGPHILMYKKLT | 0.0383 s⁻¹ | 3700 µM |
| SEQ ID NO: 309: GAT polypeptide (protein, 14_11C2, GAT polypeptide) MIEVKPINAEDTYEIRHRILRPNQPLEACKYETDLLGSTFHLGGYYRGKLVSIASFHQAEHPELEGQKQYQLRGMATLEEYREQKAGSTLIRHAEALLRKKGADLLWCNARTSASGYYKKLGFSEQGEVYDTPPTGPHILMYKKLT | 1.812 s⁻¹ | 1000 µM |
| SEQ ID NO: 307: GAT polypeptide (protein, 14_10H3, GAT polypeptide) MIEVKPINAEDTYEIRHRILRPNQPLEACKYETDLLRGAFHLGGYYRGKLVSIASFHQAEHPELEGQKQYQLRGMATLEEYREQKAGSTLIRHAEELLRKKGADLLWCNARTSASGYYKKLGFSEQGEVYDTPPVGPHILMYKKLT | 1.753 s⁻¹ | 600 µM |
| SEQ ID NO: 306: GAT polypeptide (protein, 14_10C9, GAT polypeptide) MIEVKPINAEDTYEIRHRILRPNQPLEACKYETDLLRGAFHLGGYYRGKLISIASFHQAEHPELEGQKQYQLRGMATLEEYREQKAGSTLIRHAEELLRKKGADLLWCNARTSASGYYKKLGFSEQGEVYDTPPVGPHILMYKKLT | 2.12 s⁻¹ | 900 µM |
| SEQ ID NO: 302: GAT polypeptide (protein, 13_7B12, GAT polypeptide) MIEVKPINAEDTYEIRHRILRPNQPLEACKYETDLLGSTFHLGGYYRGKLISIASFHQAEHPELEGQKQYQLRGMATLEGYREQKAGSTLIRHAEELLRKKGADLLWCNARTSASGYYKKLGFSEQGEVYDIPPTGPHILMYKKLT | 1.15 s⁻¹ | 1700 µM |
| SEQ ID NO: 296: GAT polypeptide (protein, 12F5, GAT polypeptide) MIEVKPINAEDTYEIRHRILRPNQPLEACMYETDLLGGTFHLGGYYQGKLISIASFHKAEHSELEGQKQYQLRGMATLEGYREQKAGSTLIRHAEELLRKKGADLLWCNARTSVSGYYKKLGFSEQGGIYDIPPIGPHILMYKKLT | 0.0517 s⁻¹ | 1800 µM |
| SEQ ID NO: 304: GAT polypeptide (protein, 13_8G6, GAT polypeptide) MIEVKPINAEDTYEIRHRILRPNQPLEACKYETDSLGGTFHLGGYYRGKLISIASFNQAEHPELEGQKQYQLRGMATLEGYREQKAGSTLIRHAEELLRKKGADLLWCNARTSASGYYKKLGFSEQGGVYDIPPVGPHILMYKKLT | 0.562 s⁻¹ | 610 µM |
| SEQ ID NO: 305: GAT polypeptide (protein, 13_9F6, GAT polypeptide) MIEVKPINAEDTYEIRHRILRPNQPLEACKYETDLLGGTFHLGGYYRGKLISIASFHQAEHPELEGQKQYQLRGMATLEEYREQKAGSTLIRHAEELLRKKGADLLWCNARTSASGYYKKLGFSEQGEVYDIPPVGPHILMYKKLT | 0.983 s⁻¹ | 1300 µM |
| SEQ ID NO: 299: GAT polypeptide (protein, 13_12G12, GAT polypeptide) MIEVKPINAEDTYEIRHRILRPNQPLEACMYETDLLGGTFHLGGYYRGKLISIASFNQAEHPELEGQKQYQLRGMATLEEYREQKAGSTLIRHAEELLRKKGADLLWCNARTSASGYYKKLGFSEQGEVYDIPPVGPHILMHKKLT | 0.602 s⁻¹ | 690 µM |
| SEQ ID NO: 295: GAT polypeptide (protein, 12_7G11, GAT polypeptide) MIEVKPINAEDTYEIRHRILRPNQPLEACKYETDLLGGTFHLGGYYRGKLISIASFHQAEHSELEGQKQYQLRGMATLEGYREQKAGSTLIRHAEELLRKKGADLLWCNARTSASGYYKKLGFSEQGEVYDTPPVGPHILMYKKLT | 3.908 s⁻¹ | 2000 µM |
